This series is described as follows: soluble on expression in E. coli; label from the status in PepcDB or PDB records.
For “MGSDKIHHHHHHMSWKLSIIRLLNKSLVPNQQRALVVFTVLLLCACGKAKIPFSPITVSQTPVTTAQFTDDIDTVSTLEAKEEVHLAAQASGRIIELKIDQGDQVQPGQMLVVLDQAQIRAELADFKAQEQKNKLNWQRYEFLVPQGAASALDRDEYKAQYIASREKVKATEATLAYSNLRSPISGIVADVDVKVGDVIRSGDPFTKLIRNNRLFARVEVPATFSDRIKIGLPVFLNKTGSSDVMATGEINSVGPTVNRTTQGLLVKAAFENANGSLRNGQRLRTRVQLDTREELSVPFAAVTQTSGQSFVYRVGSFQELEDFSGNISLDKLRKLPPSTRFALQTPVTLGKLQKQRYAVTKGLKLGEQVITTNLLKLRHGMPISVKN”, the “soluble on expression in E. coli” value is given as “not soluble”. The result for “MSLANAFGKEKNIKEFYALKGVSFEISKGECVGIIGHNGAGKSTLLKLLTGVAFPTSGEIEINGRLASMLELGSGFNPELTGMENIYFNGSLNGLTKEEIDGKLKDILEFADIGNFIEQPVKNYSSGMFARLAFAVAINVDPDILIVDEILSVGDVGFQVKCMEKFNEFKKKGKTILYVSHGLGTVKKFCDRAIWLQKGEVVDDGNSVIVVERYYNLNFNPANIEQLKDHKSDIINSIAVKSNTKNVEYLEKLDLEVEYDLISNDLKDPNIVLEFRKTDYEPGTTRGNDQFVCGINSKDNIKNIPFNLGVNKLKVSLNKVNLVAGVYYIDFVLRDGEEEVYRKINGYSFTLNDKYRGEGFLILGHSWGNEGHHHHHH” reads “not soluble”. The result for “GSAAATGPSFWLGNETLKVPLALFALNRQRLCERLRKNPAVQAGSIVVLQGGEETQRYCTDTGVLFRQESFFHWAFGVTEPGCYGVIDVDTGKSTLFVPRLPASHATWMGKIHSKEHFKEKYAVDDVQYVDEIASVLTSQKPSVLLTLRGVNTDSGSVCREASFDGISKFEVNNTILHPEIVECRVFKTDMELEVLRYTNKISSEAHREVMKAVKVGMKEYELESLFEHYCYSRGGMRHSSYTCICGSGENSAVLHYGHAGAPNDRTIQNGDMCLFDMGGEYYCFASDITCSFPANGKFTADQKAVYEAVLRSSRAVMGAMKPGVWWPDMHRLADRIHLEELAHMGILSGSVDAMVQAHLGAVFMPHGLGHFLGIDVHDVGGYPEGVERIDEPGLRSLRTARHLQPGMVLTVEPGIYFIDHLLDEALADPARASFFNREVLQRFRGFGGVRIEEDVVVTDSGIELLTCVPRTVEEIEACMAGCDKAFTPFSGPK” reads “soluble”. Regarding “MKDILIIAGPTAVGKTDISIKIAQKMNGEIISADSMQIYKYMDIGSAKVTKEEMKGIKHHLIDVVDPSEEFSVASFKKMAQNAIDDITSRKKYPIIVGGTGLYINSLICNYDFTGAYKDEAYRESLQAIAKDKGKEYLHEKLKNIDIDSYKKLYPNDLKRVIRALEVYKITGKTISELNSNVDLYDIPYNIHYFILNMDRQKLYERINLRVDIMLRNGLVDEVIKLRDMGYNSNMQSMKGIGYKEILSYLEGCITLEEAVELIKKGSRHYAKRQLTWFRKDERAVWINKDIYKNDDDIVFKILSSIEEILEHHHHHH”, the “soluble on expression in E. coli” value is recorded as “not soluble”. The result for “MRRNISIPASDSESALPGSPQGSDAHVSWWCGCGVIVGMSVSLLRGRTVRRALSVLVVAGLLGAGVTGCSNDAGAKTENTIDASPTPTNTTTDGDGDSTEEPVENTPAEPEQRPTPVEPEAMKTGDKAGAIAAAQFFVEVFDYDARTSSTTLMDKYAYKKCTLCNEMRSDKQRLIDEGEISFWAEYSEAEYINSTFVGDEEIIWEVDTETSYLEHVRSLTSNEITSTRTDLILTMQIGWLGDRWELVSLGYSKK” reads “not soluble”; that for “MQPPPRKVKPAQEVKLRFLEQLSILQTWQQREADLLEDIRSYSKQRAAIEREYGQALQKLAGPFLKREGHRSGEMDSRGRTVFGAWRCLLDATVAGGQTRLQASDRYRDLAGGTGRSAKEQVLRKGTENLQRAQAEVLQSVRELSRSRKLYGQRERVWALAQEKAADVQARLNRSDHGIFHSRTSLQKLSTKLSAQSAQYSQQLQAARNEYLLNLVATNAHLDHYYQEELPALLKALVSELSEHLRDPLTSLSHTELEAAEVILEHAHRGEQTTSQVSWEQDLKLFLQEPGVFSPTPPQQFQPAGTDQVCVLEWGAEGVAGKSGLEKEVQRLTSRAARDYKIQNHGHRVLQRLEQRRQQASEREAPSIEQRLQEVRESIRRAQVSQVKGAARLALLQGAGLDVERWLKPAMTQAQDEVEQERRLSEARLSQRDLSPTAEDAELSDFEECEETGELFEEPAPQALATRALPCPAHVVFRYQAGREDELTITEGEWLEVIEEGDADEWVKARNQHGEVGFVPERYLNFPDLSLPESSQDSDNPCGAEPTAFLAQALYSYTGQSAEELSFPEGALIRLLPRAQDGVDDGFWRGEFGGRVGVFPSLLVEELLGPPGPPELSDPEQMLPSPSPPSFSPPAPTSVLDGPPAPVLPGDKALDFPGFLDMMAPRLRPMRPPPPPPAKAPDPGHPDPLT”, “soluble”. With “MGHHHHHHSHMNNQKVVAVLLQECRALLPSELRTLIQEAKEMKWPFVPEKWQYKQAVGPEDKTNLKDVIGAGLQQLLASLRASILARDCAAAAAIVFLVDRFLYGLDVSGKLLQVAKGLHKLQPATPIAPQVVIRQARISVNSGSHPAKHSM” the entry was “not soluble”; with “MGHHHHHHSHVRSPQNQYPAELMRRFELYFQGPSSNKPRVIREVRADSVGKLVTVRGIVTRVSEVKPKMVVATYTCDQCGAETYQPIQSPTFMPLIMCPSQECQTNRSGGRLYLQTRGSRFIKFQEMKMQEHSDQVPVGNIPRSITVLVEGENTRIAQPGDHVSVTGIFLPILRTGFRQVVQGLLSETYLEAHRIVKMNKSEDDESGAGELTREELRQIAEEDFYEKLAASIAPEIYG”, “soluble”; with “GSHMRPQGATVSLWETVQKWREYRRQCQRSLTEDPPPATDLFCNRTFDEYACWPDGEPGSFVNVSCPWYLPWASSVPQGHVYRFCTAEGLWLQKDNSSLPWRDLSECEESKRGERSSPEEQLLFLY”, “soluble”.

With “NYNHPFTQLGNQVFPTTPIVSGVRGRVVEVPVQANQPLKTGDILFKIDPVPFEAEVARLEAKVKEASQGALGLESDLREAEAAVLKAQADRDKAQREFSRYQRGFDRGAFTEQDLDTRRQAYKAAEAMLDVAILQQEQAQIALDSEIGGENTQVAQLLAELRKAEFNLEQTIVRAPTDGYVTQLALR”, the “soluble on expression in E. coli” value was “soluble”.

As to “MGSDKIHHHHHHMEMNEVIIDENLKESIDLWTFMLPIISHRTTIRKNIHGYMPLHWHDELQFVVIIQGEARFQVNEEAIIVQEGDGLFINSGCLHMVEDGNGSNCVYICLNVPAQSIISRELYTAYVAPYVQATNLPYVLIPSSEMWGQNIIEATLNIHQCLEEQPPYYEMDITTKLTVIWKSLITNGFPLEYDQSAMIKNQRMKAMLQWIHLHYGENIRLDDIAKAGQLSRSECCRYFKRTLKMTPLQYVTDYRIQKSVTLLQQPESNVTDVAYQVGFNSTSYFIDQFRKAMNMTPLRYKKSKLERLID”, the “soluble on expression in E. coli” value is reported as “not soluble”. With “MGAIQFQTAPKLPVTVLLAAKNEAVNLPRCLAALGPAERVIVLDSHSTDATAEIARQHGAEVAQFDYRGGYPKKRQWALDTIPFGTPWILLLDADEVVPEDLWKEIGNVTRQPDADAYLITKGFHFLGRKFKHGGFSHSAVLLFKTGMARFEKLFDDDLNGLDMEIHERVVVDGRIGKLKTPLVHEDFKGLEAYITRHNKYSTWEAKVRHHYLTTGRYGEQTIKPRLFGNSQERRRFLKALIIRLPFEPQIWFIYHYLLRLGFLEGRPGLIASQIRAAYIAQARAKIYELRLNTPSRLEHHHHHH” the entry was “not soluble”; with “MVKDEVIKQISTPLTSPAFPRGPYKFHNREYFNIVYRTDMDALRKVVPEPLEIDEPLVRFEIMAMHDTSGLGCYTESGQAIPVSFNGVKGDYLHMMYLDNEPAIAVGRELSAYPKKLGYPKLFVDSDTLVGTLDYGKLRVATATMGYKHKALDANEAKDQICRPNYMLKIIPNYDGSPRICELINAKITDVTVHEAWTGPTRLQLFDHAMAPLNDLPVKEIVSSSHILADIILPRAEVIYDYLK”, “soluble”; with “MSLSDQPVLFSRAAASCRLTLNREDKCHAINEEMIESLDHYLNEIENDTALRLVELTATGDKFFCAGGDIKSWSAYSPLDMGRKWIKRGNDVFNRLRNLPQLTVANLNGHTIGGGIELALCCDIRIARPHAKFSNPEVMLGMVPGWMGIERVLNQVGPVVGRQMLMLGKRLTAQEAQAANLIDEVVEKEQVESWMANQLAQLEKCGPVALAHIKQLILALENKHADYSHQLLAGLMSATQDCQQATHAFAEKAGVSFHNQEGHHHHHH”, “soluble”.

Regarding “MGSDKIHHHHHHMFEKRHRITLLFNANKAYDRQVVEGVGEYLQASQLEWDIFIEEDFRARIENIKEWLGDGVIADYDDPEIEKLLADVHVPIVGVGGSYHQPEQYPPVHYIATDNAALVESAFLHLKEKGVHRFAFYGLPASSGKRWAVEREYAFCQLVAKEKYRGVVYQGLETAPENWQHAQNRLADWLQTLPPQTGIIAVTDARARHVLQACELLHIPVPEKLCVIGIDNEELTRYLSRVALSSVAQGTRQMGYQAAKLLHRLLNNEALPLQRQLIPPMRVVERRSTDYRSLNDPSVIQAMHYIRNNACKGIKVEQVLDAVGISRSNLEKRFKEEVGETIHTVIHSEKLEKARSLLVSTSLSINEISQMCGYPSLQYFYSVFKKEYDVTPKEYRDRHSEVML”, the “soluble on expression in E. coli” value is on record as “not soluble”. The result for “MKFTIMSKGDQSSDTLASTMKEYLLDFGFIMDEKEPDIVISVGGDGTLLYAFHRYYNRLDETAFVGVHTGHLGFYADWLPTEVEKLVIAIAKTPFQVVEYPLLEVIIRYVNGSKESQYLAMNEATVKSAEGTLVTEVEIRGEYFETFRGDGLCISTPSGSTAYNKALGGAIIHPSIEAIQIAEMASINNRVFRTVGSPLVLPKHHTCVLKPAAGMNLQITVDHLTMVHQDVKSIQYRVANEKVRFVRFRPFPFWKRVRDSFVADKLEHHHHHH” reads “not soluble”. As for “MGSDKIHHHHHHMTQLSNKTKDSCNWDSIVIGSGLGGLVTASQLASKGAKVLVLEQYKIPGGSGGSFKRKGFTFDVGASMIFGFGNKGYTNLLTRALKDVGQKCETIPDPTQLAYHLPNQLEISVDRDYQKFITKLINLFPHEEKGIKHFYETCWDVFNCLDSMPLLSIEDPAYLMKVFFKSPLSCLGLARWLPVNAGDVAMRYIKDPDLLRFIDIECFCWSVMPANLTPMINAGMVFSDRHYGGINYPKGGVGVIAEKLVKGIKNLGGEIRYKSRVKKIIFEKGNAIGVSLENDEEIFSKTVVSNATRWDTFGGQGIKSPLVATENKPTSEKKWENRYIPSPSFLSLHLGVNVDSIPANTHCHHLLLDKWEEMDKEQGVTFVSIPTLLDPTLAPSGSHIVHAFTPSSIDNWDGLSNKEYLAKKKEDGDKLISKLERLFPNLSQNILHKEIGSPRTHKRFLARNKGSYGPIPSMRLPGLLPMPFNTTKINGLYCVGDSCFPGQGLNAVAFSGYACAHKIGTKLGMNKWELPE”, the “soluble on expression in E. coli” value is listed as “not soluble”. The result for “MRILVTNDDGIQSKGIIVLAELLSEEHEVFVVAPDKERSATGHSITIHVPLWMKKVFISERVVAYSTTGTPADCVKLAYNVVMDKRVDLIVSGVNRGPNMGMDILHSGTVSGAMEGAMMNIPSIAISSANYESPDFEGAARFLIDFLKEFDFSLLDPFTMLNINVPAGEIKGWRFTRQSRRRWNDYFEERVSPFGEKYYWMMGEVIEDDDRDDVDYKAVREGYVSITPIHPFLTNEQCLKKLREVYD” reads “soluble”; that for “FFTPPHIVQLCVRLVDDFADGMTFHDPTVGSGGMLTEAAKYYREAQGGDPSKLTFTGQEINPDIAAIARMNLSLHTLNGEIERGDSLASPGFTDGDDLERFDRVLANFPFSADWAKDDLQDDQYGRFDWHTKLPRADRGDYAFIMHIAEQLKEPDCGDESGGKAAIVIPHGVLFRKHEQRYRQPMLENDLVEAIVGLPENLFQNNSIPSAILVLNTDKPADREGEVQFIHAADEAFYEELSNQNELTDDGLDHIVENFDDWTTE”, “not soluble”.

(Values after the DeepSol protein solubility set.)
